Source: patent publication US20060141529

Columns and labels:
[1] = target: CRK (positive control substrate printed on the Human ProtoArray microarray) (UniProt P46108)
[2] = target: Shp1 (on Human ProtoArray microarray) (UniProt P29350)
[3] = tested on: Cortactin (endogenous, immunoprecipitated from PDGF-stimulated cells)

Sequence of Shp1 (on Human ProtoArray microarray) (P29350 whole entry): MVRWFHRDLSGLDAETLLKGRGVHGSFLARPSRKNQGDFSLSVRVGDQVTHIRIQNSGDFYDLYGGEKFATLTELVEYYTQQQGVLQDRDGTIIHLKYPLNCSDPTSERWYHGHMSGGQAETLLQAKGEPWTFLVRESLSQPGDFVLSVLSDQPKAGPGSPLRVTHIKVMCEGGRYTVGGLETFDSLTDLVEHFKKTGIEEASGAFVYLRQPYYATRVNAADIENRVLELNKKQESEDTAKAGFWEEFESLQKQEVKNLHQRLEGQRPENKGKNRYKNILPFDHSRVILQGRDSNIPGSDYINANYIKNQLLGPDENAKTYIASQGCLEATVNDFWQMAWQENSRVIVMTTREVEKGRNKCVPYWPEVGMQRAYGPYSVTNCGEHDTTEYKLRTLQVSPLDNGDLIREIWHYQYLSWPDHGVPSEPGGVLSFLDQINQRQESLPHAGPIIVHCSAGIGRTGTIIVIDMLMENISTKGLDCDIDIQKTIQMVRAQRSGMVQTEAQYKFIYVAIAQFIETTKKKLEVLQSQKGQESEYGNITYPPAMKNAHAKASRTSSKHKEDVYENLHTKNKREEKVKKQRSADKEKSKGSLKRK
Sequence of CRK (positive control substrate printed on the Human ProtoArray microarray) (P46108 whole entry): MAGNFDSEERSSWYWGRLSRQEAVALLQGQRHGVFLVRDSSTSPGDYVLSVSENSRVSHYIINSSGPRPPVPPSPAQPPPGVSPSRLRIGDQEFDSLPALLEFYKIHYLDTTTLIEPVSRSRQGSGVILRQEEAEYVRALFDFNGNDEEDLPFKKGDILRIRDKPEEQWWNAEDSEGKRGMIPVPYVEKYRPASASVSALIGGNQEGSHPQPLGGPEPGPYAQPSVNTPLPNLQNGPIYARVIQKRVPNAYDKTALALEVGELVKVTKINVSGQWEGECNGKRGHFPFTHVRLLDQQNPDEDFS

| Substance | phosphorylation on Human ProtoArray microarray (radiolabeled ATP) [1] | phosphorylation on Human ProtoArray microarray [2] | PDGF-stimulated tyrosine phosphorylation of Cortactin (immunoprecipitation and anti-phosphotyrosine immunoblot) [3] |
| --- | --- | --- | --- |
| ARG kinase (protein tyrosine kinase ARG used to probe the Human ProtoArray microarrays) | This kinase phosphorylated the control substrate CRK in every subarray | one of the proteins proven to be a substrate for ARG on a Human ProtoArray microarray, Shp1 |  |
| ABL (endogenous, in wild-type cell line) |  |  | PDGF stimulates phosphorylation of Cortactin 3-fold in wild type cells but not in abl-/-, arg-/-, and abl-/-arg-/- |
| ARG (endogenous, in wild-type cell line) |  |  | PDGF stimulates phosphorylation of Cortactin 3-fold in wild type cells but not in abl-/-, arg-/-, and abl-/-arg-/- |
